Literature values as cited in paper PMC12461627, “Locking CBL TKBD in its native conformation presents a novel therapeutic opportunity in mutant CBL-dependent leukemia” (Molecular Therapy, 2025).

Biological target: pSYK peptide (Homo sapiens) (UniProt P43405)
Conditions: cited from earlier work

In the case of CBL TKBD (from UniProt P22681), the Kd is listed as 1.48 µM.
